Target: T1, 重组人GPC3蛋白 (human, UniProt P51654 25-559, limits assumed)
T1 construct: also called 磷脂酰肌醇聚糖蛋白3
Test: SPR, Biacore X100; antibody captured on goat anti-human Fc gamma CM5 chip, human GPC3 10nM-80nM as analyte, 1:1 Langmuir model

T1 sequence (P51654 25-559 limits assumed): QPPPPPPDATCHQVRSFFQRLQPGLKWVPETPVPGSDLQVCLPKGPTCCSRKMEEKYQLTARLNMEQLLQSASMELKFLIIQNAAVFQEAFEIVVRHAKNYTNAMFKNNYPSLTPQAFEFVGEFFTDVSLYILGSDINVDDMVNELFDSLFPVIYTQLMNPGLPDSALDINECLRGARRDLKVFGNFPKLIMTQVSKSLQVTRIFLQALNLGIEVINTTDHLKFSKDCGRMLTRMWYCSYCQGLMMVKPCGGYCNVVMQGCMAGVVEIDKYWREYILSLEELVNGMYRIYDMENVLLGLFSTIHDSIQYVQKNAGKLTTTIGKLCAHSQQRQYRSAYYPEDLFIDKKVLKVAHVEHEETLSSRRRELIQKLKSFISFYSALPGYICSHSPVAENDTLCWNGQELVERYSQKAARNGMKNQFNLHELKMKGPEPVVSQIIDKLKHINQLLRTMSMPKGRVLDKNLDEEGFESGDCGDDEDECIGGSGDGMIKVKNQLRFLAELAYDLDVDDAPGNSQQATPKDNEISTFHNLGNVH

B1: 抗体GPC3-6 (antibody, human IgG1, lambda, V domains shown)
VH: QVHLVQSGAEVQKPGSSVKVSCKASGGTFSSYGINWVRQAPGQGLEWMGWISAYNGNTNYAQKLQGRVTMTTDTSTSTAYMELRSLRSDDTAVYYCARGSGLLPRIGGYWGKGTMVTVSS
VL: LSSELTQDPAVSVPLGQTVRITCRGDSLRTFYATWYQQKPGQAPVRVIYRKNNRPSGIPDRFSGSSSGNTASLTITGAQAEDEADYYCNSRDSSGDHLVFGTGTKLTVLG
notes: Selected from a phage display antibody library against GPC3; In SPR it was captured through goat anti-human Fc gamma; also called 人抗GPC3抗体GPC3-6; 抗GPC3抗体
  Kd: 3.77 nM
  koff: 0.000719 s⁻¹
  kon: 190000 M⁻¹ s⁻¹
